T1: Structural Maintenance of Chromosome-1A (SMC1A) (human, UniProt Q14683 1-1233)
T1 construct: whole, on cells; Endogenous antigen; It is on live or fixed cells in flow cytometry, LI-COR cell surface assay, ICC and immunogold EM, and in cell lysates in Western blot and immunoprecipitation; No recombinant SMC1A was used; also called SMC1A antigen; surface SMC1
T1 sequence (looked up): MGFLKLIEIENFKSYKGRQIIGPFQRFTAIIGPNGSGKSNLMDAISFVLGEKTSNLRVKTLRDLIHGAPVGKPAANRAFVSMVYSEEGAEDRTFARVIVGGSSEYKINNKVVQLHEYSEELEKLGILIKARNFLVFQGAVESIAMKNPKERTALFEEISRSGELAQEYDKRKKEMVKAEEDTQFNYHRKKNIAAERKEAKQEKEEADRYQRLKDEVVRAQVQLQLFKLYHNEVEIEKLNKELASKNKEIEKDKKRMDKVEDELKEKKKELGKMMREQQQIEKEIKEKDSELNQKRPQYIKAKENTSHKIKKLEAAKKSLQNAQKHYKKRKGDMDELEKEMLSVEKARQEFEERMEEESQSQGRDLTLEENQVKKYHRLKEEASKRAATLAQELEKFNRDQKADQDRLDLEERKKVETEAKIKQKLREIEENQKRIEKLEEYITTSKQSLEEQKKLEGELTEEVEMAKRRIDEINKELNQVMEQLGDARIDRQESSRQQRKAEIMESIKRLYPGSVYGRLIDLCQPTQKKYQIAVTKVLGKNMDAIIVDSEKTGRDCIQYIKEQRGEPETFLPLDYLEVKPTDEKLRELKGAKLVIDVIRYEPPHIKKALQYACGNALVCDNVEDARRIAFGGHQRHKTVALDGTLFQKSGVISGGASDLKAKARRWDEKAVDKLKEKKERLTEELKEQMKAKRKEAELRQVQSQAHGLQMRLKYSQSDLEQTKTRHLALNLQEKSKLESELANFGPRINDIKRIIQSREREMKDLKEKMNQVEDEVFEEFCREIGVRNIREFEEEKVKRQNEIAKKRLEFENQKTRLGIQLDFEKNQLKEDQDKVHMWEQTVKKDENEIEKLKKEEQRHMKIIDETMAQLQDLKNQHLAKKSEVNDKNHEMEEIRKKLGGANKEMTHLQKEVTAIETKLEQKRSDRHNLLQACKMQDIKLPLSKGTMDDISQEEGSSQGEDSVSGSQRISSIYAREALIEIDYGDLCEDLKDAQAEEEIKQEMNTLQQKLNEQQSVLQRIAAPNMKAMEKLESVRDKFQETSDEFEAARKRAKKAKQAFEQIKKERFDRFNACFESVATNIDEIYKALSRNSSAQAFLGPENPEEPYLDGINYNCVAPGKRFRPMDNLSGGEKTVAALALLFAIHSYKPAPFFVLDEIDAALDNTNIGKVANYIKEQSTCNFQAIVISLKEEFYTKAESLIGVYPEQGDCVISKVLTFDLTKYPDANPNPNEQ

B1: SMC1A1 (antibody, V domains shown)
VH: VTLKESGPGILQPSQTLSLTCSFSGFSLSTSGMGVGWIRQPSGKGLEWLAHIWWDDDQYSNTALRSGLTISKDTSKNQVFLKIASVDTSDTATYYCARVTTDAVDYWGQGTSVTVSS
VL: QIVLTQSPAIMSISPGERVTMTCSASSGLTYMYWYQQKPGSSPRLLIYDTSNLASGVPVRFSGSGSGTSYSLTISRMEAEDAATYYCQQWKSFPPTFGGGTKLEIKR
notes: also called SMC1A-ALPHA1
B2: chimeric SMC1A1 mAb (antibody, V domains shown)
VH: B1 VH
VL: B1 VL
notes: also called SMC1A-ALPHA1
B3: SMC1A4-chimeric antibody (antibody, V domains shown)
VH: VQLQQSGAELVKPGASVKLSCTASGFNIKDPYMHWVKQRPEQGLEWIGWITPANGNTKYDPKFQAKATITADTYSNTAYLQFSSLTSEDTAVYFCARSGDAYYWAWFAYWGQGTLVTVSA
VL: DVLMTQTPLSLTVSLGDQASISCRSSQSIVHSNGNTYLEWYLQKPGQSPKLLIYKVSNRFSGVSDRFSGSGSGTDFTLKISRVEAEDLGVYYCFQGPLYTFGGGTKLEIKR
notes: Chimeric IgG detected with anti-human secondary antibodies; also called chimeric SMC1A4; SMC1A4 chimeric monoclonal antibody
B4: SMC1-Beta (antibody, V domains shown)
VH: EVKLQESGPELVKSGASVKIPCKASGYTFTDFNIEWVKQNRGKSLEWIGDINPSNGETIYNKKFKGKATLTVDKSSTTAFMELRSLTSEDTAVYYCARDHYYGYDYDAMDYWGQGTSVTVSS
VL: QIVLTQSPAIMSASPGEKVTMTCSASSSIGYMHWYQQKPGTSPKRWIYDRSKLASGVPARFSGSGSGTSFSLTISSMEAEDAATYYCHQRSRYPYTFGGGTKLEIKR
B5: meditope-enabled SMC1A4 (antibody, human IgG1, kappa, V domains shown)
VH: EVQLVESGGGLVQPGGSLRLSCAASGFNIKDPYMHWVRQSPGKGLEWIGWITPANGNTKYADSVKGRATISADTSKNTAYLQMNSLRAEDTAIYFCARSGDAYYWAWFAYWGQGTLVTVSS
VL: DVQMTQSPILLSASVGDRVTITCRSSQSIVHSNGNTYLEWYQQRTNGSPRLLIYKVSNRFSGVPSRFSGSGSGTDFTLTISSLQPEDIADYYCFQGPLYTFGAGTKVEIKR
notes: It was detected with anti-human secondary antibodies; also called SMC1A4-me; SMC1A4-ME

Tests used:
[1] = molecular target: T1, Structural Maintenance of Chromosome-1A …; assay: LI-COR based cell surface assay on tumor cells
[2] = molecular target: T1, Structural Maintenance of Chromosome-1A …; assay: immunoprecipitation, then Western blot with the Bethyl anti-human SMC1A polyclonal antibody
[3] = molecular target: T1, Structural Maintenance of Chromosome-1A …; assay: Western blot of HCT116, HT29 and MDA-MB-231 lysates, 1 ug/ml
Procedure: For each Westem blot, the cell lysates used as samples were from HCT116 cells (1), HT29 cells (2) and MDA-MB-231 cells (3). […] The secondary antibody used was an anti-human-HRP (dilution 1:3000) and incubated for 1 hour at room temperature with the overnight incubations.

| Binder | binding result [1] | binding result [2] | also measured |
| --- | --- | --- | --- |
| B1 | binds |  |  |
| B2 |  | binds |  |
| B3 |  | binds |  |
| B4 | binds |  |  |
| B5 |  |  | binding result [3]: binds |
